What was measured:
[1] = molecular target: T1, Shuffle 3; experiment: flow cytometry on transfected HEK293-T17 cells, 1 µg/mL antibody, APC-labeled AffiniPure F(ab')2 fragment as secondary
T1 construct: Expressed on transiently transfected HEK293-T17 cells; also called Human CD137 shuffle 3 (amino acids 115-138 of wild boar CD137); shuffle construct 3
T1 receptor chain: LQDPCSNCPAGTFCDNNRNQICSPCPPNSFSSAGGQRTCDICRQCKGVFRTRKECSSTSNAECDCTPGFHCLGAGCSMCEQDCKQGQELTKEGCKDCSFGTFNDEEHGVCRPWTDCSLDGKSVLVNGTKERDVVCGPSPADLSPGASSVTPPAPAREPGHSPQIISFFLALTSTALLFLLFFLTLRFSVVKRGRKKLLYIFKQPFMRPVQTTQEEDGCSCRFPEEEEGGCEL
Procedure: (§1) 3×10⁶ HEK293T-17 cells were seeded in T75 culture flasks (Greiner Bio-One, cat. no. 658175) in 20 mL RPMI 1640 GlutaMAX medium containing 10% FCS (Biochrom, cat. no. S 0115). After O/N incubation, cells were transiently […] with expression vectors encoding the shuffle constructs or the wild boar, African elephant or human CD137 downstream of a constitutively active human elongation factor-1 alpha (EF-1 alpha) promotor using TransIT®-LT1 Transfection Reagent, Mirus Bio (VWR International, cat. no. 731-0029), according to the manufacturer's instructions. The next day, cells were harvested using 1.5 mL Accutase (Sigma Aldrich, cat. no. A6964) (incubation at 37° C. for 5 min.) and flow cytometry was performed, essentially as described supra, to measure surface expression of the shuffle constructs and the human, African elephant and wild boar CD137 and to measure binding of the antibody clones to the different shuffle constructs. […] Binding of the different CD137 antibody clones to cells expressing the shuffle constructs was measured by incubation of the transduced cells with 1 μg/mL of the antibody clones, followed by APC-labeled AffiniPure F(ab′)2 Fragment (1:50 final dilution; Jackson, cat. no. 109-136-127).

[2] = molecular target: T2, Shuffle 2; experiment: as above
T2 construct: Expressed on transiently transfected HEK293-T17 cells; also called Human CD137 shuffle 2 (amino acids 139-161 of wild boar CD137); shuffle construct 2
T2 receptor chain: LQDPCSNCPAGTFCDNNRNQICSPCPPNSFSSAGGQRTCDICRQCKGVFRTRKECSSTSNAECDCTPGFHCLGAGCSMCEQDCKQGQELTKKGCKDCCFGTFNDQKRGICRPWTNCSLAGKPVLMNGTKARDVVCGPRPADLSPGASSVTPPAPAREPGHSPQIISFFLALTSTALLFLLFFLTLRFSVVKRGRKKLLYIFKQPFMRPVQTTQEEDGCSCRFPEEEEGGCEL
Procedure: as §1

[3] = molecular target: T3, Shuffle 1; experiment: as above
T3 construct: Expressed on transiently transfected HEK293-T17 cells; also called Human CD137 shuffle 1 (amino acids 162-186 of wild boar CD137); shuffle construct 1
T3 receptor chain: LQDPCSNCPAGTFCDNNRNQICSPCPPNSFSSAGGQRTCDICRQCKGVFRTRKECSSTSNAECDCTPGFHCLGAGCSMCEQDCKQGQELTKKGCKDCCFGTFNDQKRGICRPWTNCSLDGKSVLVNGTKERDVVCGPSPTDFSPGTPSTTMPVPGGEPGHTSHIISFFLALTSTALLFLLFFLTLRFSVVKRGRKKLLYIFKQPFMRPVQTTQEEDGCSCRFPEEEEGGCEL
Procedure: as §1

[4] = molecular target: T4, Shuffle 4; experiment: as above
T4 construct: Expressed on transiently transfected HEK293-T17 cells; also called Human CD137 shuffle 4 (amino acids 89-114 of wild boar CD137); shuffle construct 4
T4 receptor chain: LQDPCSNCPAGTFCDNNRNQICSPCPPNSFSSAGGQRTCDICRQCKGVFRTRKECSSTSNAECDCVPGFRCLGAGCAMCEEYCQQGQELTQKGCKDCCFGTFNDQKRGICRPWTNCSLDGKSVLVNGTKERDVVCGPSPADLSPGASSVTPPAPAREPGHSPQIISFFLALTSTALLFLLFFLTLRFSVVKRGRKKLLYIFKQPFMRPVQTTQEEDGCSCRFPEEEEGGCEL
Procedure: as §1

[5] = molecular target: T5, Human CD137 (human, UniProt Q07011 24-255); experiment: flow cytometry on HEK293T-17 cells transfected with human CD137, 1 µg/mL antibody
T5 construct: Amino acids 1-23 are stated as the predicted signal peptide; also called hCD137 wt; 4-1BB
Procedure: as §1

[6] = molecular target: T6, Wild boar (Sus scrofa) CD137 (wild boar (Sus scrofa)); experiment: flow cytometry on transfected HEK293T-17 cells
T6 construct: Expressed on transfected HEK293T-17 cells; Amino acids 1-23 are stated as the predicted signal peptide; also called wild boar CD137
T6 chain: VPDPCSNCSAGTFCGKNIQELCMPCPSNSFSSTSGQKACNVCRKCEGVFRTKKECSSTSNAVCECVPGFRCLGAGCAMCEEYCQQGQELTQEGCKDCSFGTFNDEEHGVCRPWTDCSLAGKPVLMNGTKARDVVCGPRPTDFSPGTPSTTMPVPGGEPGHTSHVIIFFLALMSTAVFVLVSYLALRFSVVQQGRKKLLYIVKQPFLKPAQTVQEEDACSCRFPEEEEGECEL
Procedure: as §1

[7] = molecular target: T7, African elephant (Loxodonta africana) CD137 (African elephant (Loxodonta africana)); experiment: flow cytometry on transfected HEK293T-17 cells
T7 construct: Expressed on transfected HEK293T-17 cells; Amino acids 1-23 are stated as the predicted signal peptide; also called elephant CD137
T7 chain: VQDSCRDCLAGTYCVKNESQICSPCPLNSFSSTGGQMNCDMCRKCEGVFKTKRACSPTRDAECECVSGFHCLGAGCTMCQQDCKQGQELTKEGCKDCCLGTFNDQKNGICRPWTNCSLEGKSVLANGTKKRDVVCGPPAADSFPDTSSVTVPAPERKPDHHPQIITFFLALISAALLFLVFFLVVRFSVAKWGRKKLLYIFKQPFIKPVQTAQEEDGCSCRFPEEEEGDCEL
Procedure: as §1

[8] = molecular target: T8, Human CD137 shuffle 5 (amino acids 48-88 of African elephant CD137) (human CD137 with an African elephant …, UniProt Q07011 24-255); experiment: flow cytometry on transfected HEK293T-17 cells
T8 construct: also called shuffle construct 5
T8 chain: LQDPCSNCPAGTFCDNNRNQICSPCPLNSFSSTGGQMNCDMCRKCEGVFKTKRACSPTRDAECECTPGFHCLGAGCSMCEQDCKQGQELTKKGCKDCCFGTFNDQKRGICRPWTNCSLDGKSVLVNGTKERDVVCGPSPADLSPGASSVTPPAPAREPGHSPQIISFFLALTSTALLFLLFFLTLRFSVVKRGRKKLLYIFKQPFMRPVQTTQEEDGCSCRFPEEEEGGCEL
Procedure: as §1

- binding result [1]: binds
- binding result [2]: binds
- binding result [3]: binds
- binding result [4]: binds
- binding result [5]: binds
- binding result [6]: no binding (tested: 1 µg/mL)
- binding result [7]: no binding (tested: 1 µg/mL)
- binding result [8]: no binding (tested: 1 µg/mL)
B1: CD137-009 (chimeric rabbit/human CD137 antibody) (antibody, V domains shown)
VH: QSLEESGGRLVTPGTPLTLTCTVSGFSLNDYWMSWVRQAPGKGLEWIGYIDVGGSLYYASWAKGRFTISRTSTTVDLKMTSLTTEDTATYFCARGGLTYGFDLWGPGTLVTVSS
VL: DIVMTQTPASVSEPVGGTVTINCQASEDISSYLAWYQQKPGQRPKRLIYGASDLASGVPSRFSASGSGTEYALTISDLESADAATYYCHYYATISGLGVAFGGGTEVVVK
notes: also called antibody CD137-009; rabbit anti-CD137-009
